Assay results reported in article PMC13132549.
Several values for one entry are separate records, joined by “and”; a condition that tells them apart may be missing. Equal entries are not always repeated. Blank lines part the entries; values can stand above or below the substance they belong to.

What was measured:
[1] = molecular target: RXRγ (NR2B3) ligand-binding domain (LBD) (human) (UniProt P48443); test: ITC; 500 µM Nur77 LBD titrated into 50 µM RXRγ LBD preincubated with vehicle (DMSO) or RXR ligand; 5 °C; 0.25% DMSO; homodimer competition model (SEDPHAT) for the data without ligand
RXRα LBD (Homo sapiens) = RXRα LBD (Homo sapiens) (UniProt P19793); test: ITC; settings: cited from earlier work
Chain of UniProt P19793 (P19793 227-458): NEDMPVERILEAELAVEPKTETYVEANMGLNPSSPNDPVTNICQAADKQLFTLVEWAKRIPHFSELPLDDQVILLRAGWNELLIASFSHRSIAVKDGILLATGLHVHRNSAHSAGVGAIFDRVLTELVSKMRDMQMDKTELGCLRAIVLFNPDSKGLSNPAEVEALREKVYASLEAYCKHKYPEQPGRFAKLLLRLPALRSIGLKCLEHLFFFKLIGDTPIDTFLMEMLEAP

[2] = molecular target: RXRα (NR2B1) ligand-binding domain (LBD); test: SEC-MALS; 100 µL of each protein at 5 mg/mL (180 µM) injected; 40 mM potassium phosphate pH 7.4, 200 mM KCl; 25 °C
[3] = molecular target: RXRγ (NR2B3) ligand-binding domain (LBD) (human) (UniProt P48443); test: as above

Substance: Nur77 (NR4A1) ligand-binding domain (LBD) (from UniProt P22736 356-598) (domain or fragment)
Kd [1]: 9 µM

Substance: Nurr1 LBD (from UniProt P43354)
Kd (RXRα LBD (Homo sapiens)): 4 µM

stoichiometry N [2]: 2 and 4
Substance: RXRα (NR2B1) ligand-binding domain (LBD) (domain or fragment)

Substance: RXRγ (NR2B3) ligand-binding domain (LBD) (from UniProt P48443 226-463) (domain or fragment)
stoichiometry N [3]: 2 and 4
